This note sets out measurements from publication PMC5304152.

Values joined by “and” are separate entries in the source; they are usually repeats but may differ in a detail not shown here. Equal entries are not always repeated.

For the assay, the target named is barfin plaice type I antifreeze protein, 40-residue major isoform (bpAFP) (barfin plaice (Liposetta pinnifasciata)). Kind of assay: AUC; sedimentation velocity, 40,000 rpm, 4 °C, 2.5 mg bpAFP in 0.5 mL (5 mg/mL) 10 mM sodium phosphate pH 7.9, absorbance optics; monomer to tetramer (and octamer).

On to “barfin plaice type I antifreeze protein, 40-residue major isoform (bpAFP) (peptide)”, for which the percent of loaded protein sedimenting as tetramer worked out at 2.7%; the stoichiometry N is 4 and 8.

One may read the stoichiometry N as a count of units in the complex or per binding partner.
